Tested on: MS2 coat protein
Assay: apparent KD of MS2 coat protein; higher = weaker reporter binding
Settings: Eterna round: R107
Description: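 RNA-MaP round R107: designed RNA switches with theophylline, tryptophan, arginine or FMN aptamers are transcribed on-chip within common flanks. They are titrated with SNAP-549-labelled MS2 coat protein in RNA-MaP buffer (100 mM Tris pH 7.5, 80 mM KCl, 4 mM MgCl2), without ligand or with the indicated ligand. Median apparent KD per design.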

[1] = input ligand: theophylline 20 uM
[2] = input ligand: theophylline 2 mM
[3] = input ligand: tryptophan 2.4 mM

Sequence	apparent KD of MS2 coat protein (input ligand: arginine 13.2 mM)	apparent KD of MS2 coat protein [1]	apparent KD of MS2 coat protein [2]	apparent KD of MS2 coat protein (input ligand: none)	apparent KD of MS2 coat protein [3]
AACAUGAGCACGGCCGCCACUCCAUGAACAUGAGGAUCACCCAUACACAUGAGGAUCACCCAUGUGAGGACCGGGUGUCCAUGUG [Exclusion Tryptophan B 2]	12.6 nM	18.7 nM	16.5 nM	–	–
AACAUGAGGAUCACCCAUGUCUGAACUGAAGGAGCGCUAAAUAAGGCAGGUAGGUCGCGGAAUUUUAUAUAUAUAUAUAUAUGGG [9.E]	13.7 nM	39.9 nM	34.6 nM	25.6 nM	20.5 nM
AACAUGAGGAUCACCCAUGUUAAGUAUGAAGGAGCGUCGGAAACGACAGGUAGGUCGCAUACUUGGCCUUGUACUUCGUGUGUCU [#02 Exclusion - Arginine A]	14.2 nM	17.9 nM	14.4 nM	14.3 nM	14.7 nM
AACGUAUACAGAAGGAGCGUGAAUUAUAUUACUCAUUCUUAUACAUGAGGAUCACCCAUGUCACAGGUAGGUCGCUGUAUUCGUA [JR_ExcArginiB_Sub019]	81.9 nM	91.9 nM	111 nM	106 nM	81.6 nM
AACGUAUACAGAAGGAGCGUGAUUUAUAUUUCUUUAACAUAUACAUGAGGAUCACCCAUGUCACAGGUAGGUCGCUGUAUUCGUA [JR_ExcArginiB_Sub023]	33.6 nM	40.1 nM	32.6 nM	31.1 nM	30.8 nM
AACGUCUUGUCGGCCGCCACUGUAUGGUGCGUGACAUGAAACAUGAGGAUCACCCAUGUAGCAUGCAGGACCGGGACAGUGCCAA [Beriaran]	7.49 nM	13.9 nM	11.6 nM	–	–
AACUGGACCCGUGAUACCAGAGACAUGAGGAUCACCCAUGUACAUGAGGAUCACCCAUGUCUCCCUUGGCAGCACCGCAGGGAGC [Exclusion Theophylline B GF 13]	45.7 nM	127 nM	–	–	128 nM
AAGGUGAUCCGUGAUACCAGCUCAACAUGAGGAUCACCCAUGUAAGCCUGGAAACAGGCGAGCCCUUGGCAGCACGGUAAUAAUA [(M)'-(Theo1)-(Ms2)-(Theo2)-(M'')]	12.6 nM	14.5 nM	–	–	12.6 nM
AAUAACAUGAGGAUCACCCAUGUAAAAGAUACCAGAUGCAUGAUGAUCCCUUGGCAGCUUAAAACGCGAUUGAUUACAAUCGCGA [Mat - Same State Theophlline A - Mod of Eli - D12]	41 nM	77.9 nM	–	–	27.5 nM
AAUAACGUGAGGAUCACCCACGUAAAAGAUACCAGAGUGAUGAUCCUCCCUUGGCAGCUUAACGCUGAUUGAUUACAAUCAGCGA	49.5 nM	123 nM	213 nM	58.7 nM	49.6 nM
AAUAAGAUGAGGAUCACCCAUCUAAAAGAUACCAGAGUGAUGAUCCUCCCUUGGCAGCUUAACGCUGAUUGAUUACAAUCAGCGA	21.7 nM	124 nM	121 nM	47.2 nM	25.3 nM
AAUAAGCAGCUGCAUCAUGGGUGAGCAGAUACCAGCUAGGAAACUAGCCCUUGGCAGCUGCAACAUGAGGAUCACCCAUGUAAUA [(T)'-(M)'-(T1)-(T2)-(M1)-(M2)_Design5]	47.1 nM	108 nM	46.3 nM	42.7 nM	34.7 nM
AAUAAUAACAUGGGUGAAGUCGUACCAUAACGAGGACCGGUACGGCCGCCACUCGAACAUGAGGAUCACCCAUGUAGGUACGACA [M'-T'-T-MS2-T'' - Design 9]	37.6 nM	110 nM	85.2 nM	86.6 nM	43.7 nM
AAUAAUAAGGCGGCCGCCACUACACAUGAGGAUCACCCAUGUCUCGCGGGCUUGCGUUGGGAAUGUAGGACCGGGCCAAUAAUAA [Exclusion - Tryptophan B (Freestyle 10)]	14.3 nM	25.8 nM	27.9 nM	–	–
AAUACCGGUCCUCGAAGUGAUCCUCAUGAACGAGGACCGGUACGGCCGCCACUCGAUAACAUGAGGAUCACCCAUGUAAUAAUAA [|T'-M'-Trp-Ms2|_Design4]	72.8 nM	93.1 nM	115 nM	63.9 nM	70.6 nM
AAUAUUUGCCACAUGAGGAUCACCCAUGUGCGAGGACCGGUACGGCCGCCACUCGGUCGGUGGUUAAUGAAGAUAAACAAUAAUG [XTryp A #11]	7.7 nM	15.7 nM	11.5 nM	12 nM	11.2 nM
AAUCAUGAAAACAUGACAUGAGGAUCACUCCGAGGACCGGUACGGCCGCCACUCGCGAGGAGGCACAUGAGGAUCACCCAUGUUA [SS Tryp A #1]	31.6 nM	114 nM	148 nM	–	–
AAUCGCCUGGGUCGCAUCCUUGCUCCGGAUACCAGUCAAUAGUUGGACCCUUGGCAGCCGUAGACAUGAGGAUCACCCAUGUAUA [theeternabot_exclusion_MS2_Theo_A_42]	30.2 nM	85.5 nM	–	–	55.9 nM
AAUUAUCAGUCGGCCGCCACUGACACAUGAGGAUCACCCAUGUAACUUGGGUUAAAUUUAAUAAACAGGACCGGGACAAAGGCUA [JR_ExcTryptoB_Sub010]	94.4 nM	189 nM	192 nM	–	–

Sequence	apparent KD of MS2 coat protein (input ligand: arginine 13.2 mM)	apparent KD of MS2 coat protein [1]	apparent KD of MS2 coat protein [2]	apparent KD of MS2 coat protein (input ligand: none)	apparent KD of MS2 coat protein [3]
AAUUUUAACGGAAGGAGCGUCACGUAAUUCAUACAUGAGGAUCACCCAUGUUAGUUGUAGAGACAGGUAGGUCGCCGUUAUUUGA [JR_AAArginiB_Sub025]	15.7 nM	20.9 nM	17.1 nM	15.7 nM	17 nM
ACACAUGAGGAUCACCCAUGUGCAAUAGAUACCAGUGACGCGGUGCACCCUUGGCAGCUGUUGCUGAGUGAUGGUUCCCUCGGAA [Exclusion Theophylline A GF 6]	17.9 nM	57.6 nM	–	–	42.1 nM
ACACAUGAGGAUCACCCAUGUGCGCUGGAAGGAGCGCAGAAUCAUGCAGGUAGGUCGCCAGUGCCUUUUGAUAAAGGGAAAAGAA [Cezaquce]	66.1 nM	94.6 nM	69.3 nM	86.1 nM	60.6 nM
ACACAUGAGGAUCACCCAUGUUCAAUAGAUACCAGUGAUACGGUGCACCCUUGGCAGCUGUUGCUGAGUGAUGGUUCCCUCGGUA [#23 SameState-TheophyllineA]	28.1 nM	53.9 nM	–	–	41 nM
ACAUAUUGGUGGUACCAACGAAGGCGGAAACGAGGACCGGUACGGCCGCCACUCGGCGACAUGAGGAUCACCCAUGUGGUUAAAA [Exclusion - Tryptophan A (Freestyle 2)]	–	153 nM	851 nM	149 nM	972 nM
ACAUGAGGAUCACCCAUGUAACCUAGGGAAGGAGCGGUGUAAGAGCCAGGUAGGUCGCCCACAUGUGGAUCACCCAUGGUGAGGG [#24 Same State - Arginine A]	22.7 nM	44.4 nM	39.2 nM	29 nM	26.6 nM
ACAUGAGGAUCACCCAUGUAAUCCUCUGAAGGAGCGAGAAAUAACUCAGGUAGGUCGCAGUUCAAAACAUGAGGAUCACCCAUGU [Exclusion Arginine A GF 9]	28.9 nM	52.6 nM	46.2 nM	43.3 nM	51.1 nM
ACAUGAGGAUCACCCAUGUACAUGAGGGAAGGAGCGGUACAUGUGCCAGGUAGGUCGCCCAUGAGCAUCAGCCAUGUACAUCAGC [l,ommullin]	42.1 nM	102 nM	75.3 nM	82.7 nM	75 nM
ACAUGAGGAUCACCCAUGUACGAGUCGGAAGGAGCGGCAAUUAAGCCAGGUAGGUCGCCGGCAGAGAGUGUCAUUGUAAGUAUGA [Same State - Arginine A / A]	14.2 nM	26.8 nM	12.3 nM	14.8 nM	14 nM
ACAUGAGGAUCACCCAUGUGCCGUCUUGAUACCAGACGCGAAGUAGUCCCUUGGCAGCAAAUACGUGAGGGUCGCGCAUGUGUAA [wzxmullin]	21.8 nM	27.3 nM	–	–	24.9 nM
ACAUGAGGAUCACCCAUGUUCCUCGCCGAUACCAGUGAAGAAUUACGCCCUUGGCAGCGGAAAGAGUGUUUUGGAGAUGAGGUAC [6.aA]	80.5 nM	112 nM	–	–	100 nM
ACAUUAGCCACGGCCGCCACUGCCUUAUGAUUAUAAGGAUUAAUGAACAUGAGGAUCACCCAUGUCAGGACCGGGUGCCUACCAU [SSTryp B #5]	20.1 nM	32.5 nM	26.5 nM	–	–
ACCUCAUAGGCGGCCGCCACUGUAAUGACUACGUCAAACAUGAGGAUCACCCAUGUAGUCAAUCACAGGACCGGGUCAUGGGUAG [Tryp B SS s2]	27.7 nM	45.6 nM	41.4 nM	–	–
ACCUGCGUUUGUUUCUUUCUGACGCAGGUUCGAGGACCGGUACGGCCGCCACUCGGACAUGAGGAUCACCCAUGUUUGACAUGGG [#02 Exclusion Tryptophan A]	229 nM	238 nM	281 nM	–	–
ACCUGUACGAAAAGUGCAGGACAGGAAAAUCGAGGACCGGUACGGCCGCCACUCGUAUAAACAAGUGGAUCACCCUUGUAACCUG [TrypAS 1 #AlternativeMS2 #Zipper]	458 nM	1060 nM	1760 nM	664 nM	1610 nM
ACGAACGAUAGUGAUACCAGACGUACAUGAGGAUCACCCAUGUUUUGGGUAAGGUUAAUAGUCCCUUGGCAGCACUUUAAGUUCG [JR_ExcTheophyB_Sub007]	44.6 nM	80.8 nM	–	–	50.9 nM
ACGAACUGUAGUGAUACCAGACACACAUGAGGAUCACCCAUGUUGUUAGCAUGGUGAAUAGUCCCUUGGCAGCACAGUUAGUUCG [#12 Exclusion-TheophyllineB]	71.5 nM	111 nM	–	–	94.3 nM
ACGAUACGACAUGAGGAUCACCCAUGUGAUACCAGCGUGGAAACACGCCCUUGGCAGCACAAAUACUCCAGAAACGUAUCGAAAA [MAT - Exclusion Theophlline A - Mod of Eli - D7]	93.3 nM	258 nM	–	–	285 nM
ACGAUAGGACCUGAGGAUCACCCAGGUGAUACCAGCCUGGAAACAGGCCCUUGGCAGCACCAAUACUCCAAUAACCUAUCGAAUA [TheoAX 11 #MicroSwitchBubble #AlternativeMS2]	96.8 nM	442 nM	372 nM	220 nM	213 nM
